Assay results published in ChEMBL document CHEMBL1132216, “Studies on the monoamine oxidase-B-catalyzed biotransformation of 4-azaaryl-1-methyl-1,2,3,6-tetrahydropyridine derivatives” (J Med Chem, 1999).

Tests used:
Experiment in all cases: not read
not read [1] = substrate: CN1CC=C(n2ccc3ccccc32)CC1
Description: (§1) Km against bovine liver Monoamine oxidase B

not read [2] = substrate: CN1CC=C(n2cnc3ccccc32)CC1
Description: as §1

not read [3] = substrate: CN1CC=C(n2nnc3ccccc32)CC1
Description: as §1

not read [4] = substrate: CN1CC=C(c2cccn2C)CC1
Description: as §1

not read [5] = substrate: CN1CC=C(c2ccncc2)CC1
Description: as §1

not read [6] = substrate: CN1CC=C(n2ncc3ccccc32)CC1
Description: as §1

not read [7] = substrate: CN1CC=C(n2cccc2)CC1
Description: as §1

not read [8] = substrate: CN1CC=C(c2ccc[nH]2)CC1
Description: as §1

B1: Amine oxidase [flavin-containing] B (Bos taurus) (protein)
chain: MSSKCDVVVVGGGISGMAAAKLLHDSGLNVIVLEARDRVGGRTYTLRNQKVKYVDLGGSYVGPTQNHILRLSKELGLETYKVNEVERLIHHTKGKSYPFRGSFPSVWNPITYLDHNNLWRTMDDMGREIPSDAPWKAPLAEQWDLMTMKELLDKICWTESSKQLAILFVNLCVTAEIHEVSALWFLWYVKQCGGTTRIFSTSNGGQERKFVGGSGQVSERIMDLLGDRVKLERPVIHIDQTGENVLVETLNHELYEAKYVISAVPPVLGMKIHFNPPLPMMRNQLITRVPLGSVIKSIVYYKEPFWRNMDYCGSMIIEGEEAPVAYALDDTKPDGSYPAIIGFILAHKARKLARLTKEERLKKLCDLYAKVLGSQEALHPVHYEEKNWCEEQYSGGCYTSYFPPGIMTQYGRVLRQPVGRIYFAGTETATHWSGYMEGAVEAGERAAREILHAMGKIPEDEIWLPEPESVDVPAKPITTTFLQRHLPSVPGLLKLIGLTTIFSATALGFLAHKRGLLVRI
- Km (not read [1]): 110 µM
- kcat (not read [1]): 6.9 s⁻¹
- Km (not read [2]): 900 µM
- kcat (not read [2]): 3.33 s⁻¹
- Km (not read [3]): 80 µM
- kcat (not read [3]): 0.9 s⁻¹
- Km (not read [4]): 200 µM
- kcat (not read [4]): 6 s⁻¹
- Km (not read [5]): 2400 µM
- kcat (not read [5]): 0.233 s⁻¹
- Km (not read [6]): 100 µM
- kcat (not read [6]): 2 s⁻¹
- Km (not read [7]): 650 µM
- kcat (not read [7]): 4.47 s⁻¹
- Km (not read [8]): 1800 µM
- kcat (not read [8]): 1.42 s⁻¹
